In EP4484444A1:

Biological target: CPIII-Long (model substrate derived from procollagen III)
Experiment: cell-based or functional assay

enhancement factor of CPIII-Long cleavage by BMP-1 with 4 equivalents: > 3
enhancement factor of CPIII-Long processing by BMP-1: 1.7
Substance: human PCPE-1 fused to a C-terminal 8His tag (from UniProt Q15113 26-449)
